Experimental data: US20150307603A1 (MODIQUEST B V, published 2015)
Non-standard residues stand in square brackets, D forms with d. No end group written: not given here. Cit = NC(=O)NCCC[C@H](N)C(=O)O

Legend:
[1] = target: T1, CFC-1; experiment: ELISA, Ab 2 ug/well
T1 construct: Positive control for anti-citrulline reactivity; also called cfc1 XG; Cfc1-peptide
Method: (§1) Biotin and citrulline-containing peptides derived from fibrinogen and vimentin were immobilized on NEUTRAVIDIN®-coated 96-well ELISA plates (0.3 μg/well). CFC-1 and CFC-0 were coated at the same concentration and served as positive and negative controls, respectively, for specific anti-citrulline reactivity and as coating controls. Non-coated wells were used to test for aspecific binding of the antibodies. […] Detection of bound anti-citrulline antibodies was performed by incubating the wells with rabbit anti-human HRP (1:2000) for 1 hour at RT followed by incubation with TMB substrate. The resulting OD (y-axis) is a measure for antibody binding.
(§2) Biotin-labeled and citrulline-containing fibrinogen and vimentin peptides (Table 5) were also tested for reactivity with the therapeutic antibodies. Peptides were coated on 96-well NEUTRAVIDIN®-ELISA plates.

[2] = target: T2, msFibα XH (mouse, X at position 15 = citrulline; biotin-labelled); experiment: ELISA, Ab 2 ug/well
T2 peptide: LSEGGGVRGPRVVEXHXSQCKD
Method: as §1, §2

[3] = target: T3, msFibα XG (mouse, X at position 8 = citrulline; biotin-labelled); experiment: ELISA, Ab 2 ug/well
T3 peptide: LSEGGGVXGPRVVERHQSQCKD
Method: as §1, §2

[4] = target: T4, huFibα XH (human, X at position 15 = citrulline; biotin-labelled); experiment: ELISA, Ab 2 ug/well
T4 peptide: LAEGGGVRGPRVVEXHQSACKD
Method: as §1, §2

[5] = target: T5, msFibβ XG (mouse, also: biotin-labelled); experiment: ELISA, Ab 2 ug/well
T5 construct: also called mouse fibrinogen β peptide
T5 peptide: EPTDSLDA[Cit]GHRPVDRR
Method: as §1, §2

[6] = target: T6, msVim XS/XL (mouse, also: biotin-labelled); experiment: ELISA, Ab 2 ug/well
T6 construct: also called mouse vimentin peptide
T6 peptide: YVT[Cit]SSAV[Cit]L[Cit]SSVP
Method: as §1, §2

[7] = target: T7, human recombinant histone 2A (human); experiment: ELISA, Ab 10 ug/well
T7 construct: Non-deiminated; also called H2A
Source text: (§3) The resulting OD (y-axis) is a measure for antibody binding. H1-recombinant histone 1; H1/p2-huPAD2 recombinant histone 1; H1/p4-huPAD4 recombinant histone 1, and so forth (x-axis).

[8] = target: T8, huPAD2-deiminated human recombinant histone 2A (human); experiment: ELISA, Ab 10 ug/well
T8 construct: also called H2A/p2; histone 2A/p2
Source text: as §3

[9] = target: T9, huPAD4-deiminated human recombinant histone 2A (human); experiment: ELISA, Ab 10 ug/well
T9 construct: also called H2A/p4; histone 2A/p4
Source text: as §3

[10] = target: T10, human recombinant histone 2B (human); experiment: ELISA, Ab 10 ug/well
T10 construct: Non-deiminated; also called H2B
Source text: as §3

[11] = target: T11, huPAD2-deiminated human recombinant histone 2B (human); experiment: ELISA, Ab 10 ug/well
T11 construct: also called H2B/p2
Source text: as §3

[12] = target: T12, huPAD4-deiminated human recombinant histone 2B (human); experiment: ELISA, Ab 10 ug/well
T12 construct: also called H2B/p4
Source text: as §3

[13] = target: T13, huPAD2-deiminated human recombinant histone 3 (human); experiment: ELISA, Ab 10 ug/well
T13 construct: also called H3/p2; histone 3/p2
Source text: as §3

[14] = target: T14, huPAD4-deiminated human recombinant histone 3 (human); experiment: ELISA, Ab 10 ug/well
T14 construct: also called H3/p4
Source text: as §3

[15] = target: human recombinant histone 4 (human, UniProt P62805 2-103); experiment: ELISA, Ab 10 ug/well
Source text: as §3

[16] = target: T1, CFC-1; experiment: ELISA, Ab 10 ug/well
Source text: as §3

[17] = target: T1, CFC-1; experiment: ELISA, Ab 0.016 ug/well
Method: as §1, §2

[18] = target: T2, msFibα XH; experiment: ELISA, Ab 0.016 ug/well
Method: as §1, §2

[19] = target: T3, msFibα XG; experiment: ELISA, Ab 0.016 ug/well
Method: as §1, §2

[20] = target: T4, huFibα XH; experiment: ELISA, Ab 0.016 ug/well
Method: as §1, §2

[21] = target: T15, huFibα XG (human, X at position 8 = citrulline; biotin-labelled); experiment: ELISA, Ab 0.016 ug/well
T15 peptide: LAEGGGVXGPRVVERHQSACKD
Method: as §1, §2

[22] = target: T5, msFibβ XG; experiment: ELISA, Ab 0.016 ug/well
Method: as §1, §2

[23] = target: T6, msVim XS/XL; experiment: ELISA, Ab 0.016 ug/well
Method: as §1, §2

[24] = target: T16, peptide no. 1 (human histone 2A) (human, also: biotin-labelled); experiment: ELISA, Ab 0.000128 ug/well
T16 construct: also called peptide 1; AAASGXGKQGGK
T16 peptide: AAASG[Cit]GKQGGK
Method: as §1, with “histone 2A” for “fibrinogen and vimentin”

[25] = target: T17, peptide no. 3 (human histone 2A) (human, also: biotin-labelled); experiment: ELISA, Ab 0.000128 ug/well
T17 construct: also called peptide 3
T17 peptide: KSRSS[Cit]AGLQFP
Method: as §1, with “histone 2A” for “fibrinogen and vimentin”

[26] = target: T18, peptide no. 5 (human histone 2A) (human, also: biotin-labelled); experiment: ELISA, Ab 0.000128 ug/well
T18 construct: also called peptide 5
T18 peptide: VGRVH[Cit]LLRKGN
Method: as §1, with “histone 2A” for “fibrinogen and vimentin”

[27] = target: T19, peptide no. 9 (human histone 2A) (human, also: biotin-labelled); experiment: ELISA, Ab 0.000128 ug/well
T19 construct: also called peptide 9
T19 peptide: DNKKT[Cit]IIPRHL
Method: as §1, with “histone 2A” for “fibrinogen and vimentin”

[28] = target: T20, peptide no. 11 (human histone 2A) (human, also: biotin-labelled); experiment: ELISA, Ab 0.000128 ug/well
T20 construct: also called peptide 11
T20 peptide: LQLAI[Cit]NDEELN
Method: as §1, with “histone 2A” for “fibrinogen and vimentin”

B1: RhmAb2.102 (antibody, human IgG1, lambda)
heavy: not shown
light: QSVLTQPPSMSAAPGQKVTISCSGSSSNIGNNYVSWYQQVPGTAPKLLIYDDNKRPSGIPGRFSGSKSATSATLGITGLQAGDEADYYCGSWDDNLSVVLFGGGTKLTVLGQPKAAPSVTLFPPSSEELQANKATLVCLISDFYPGAVTVAWKADSSPVKAGVETTTPSKQSNNKYAASSYLSLTPEQWKSHRSYSCQVTHEGSTVEKTVAPTECS
notes: Human IgG1 lambda; also called Rhm2.102
OD [1]: 3.97 OD450 | OD [2]: 0.091 OD450 | OD [3]: 1.9 OD450 | OD [4]: 0.116 OD450 | OD [5]: 3.15 OD450 | OD [6]: 2.77 OD450 | OD [7]: 0.428 OD450 | OD [8]: 3.41 OD450 | OD [9]: 3.42 OD450 | OD [10]: 0.247 OD450 | OD [11]: 0.31 OD450 | OD [12]: 0.229 OD450 | OD [13]: 2.44 OD450 | OD [14]: 1.31 OD450 | OD [15]: 0.825 OD450 | OD [16]: 3.48 OD450 | OD [17]: 1.22 OD450 | OD [18]: 0.081 OD450 | OD [19]: 0.107 OD450 | OD [20]: 0.08 OD450 | OD [21]: 0.103 OD450 | OD [22]: 0.174 OD450 | OD [23]: 0.201 OD450 | OD [24]: 0.128 OD450 | OD [25]: 0.063 OD450 | OD [26]: 0.059 OD450 | OD [27]: 0.055 OD450 | OD [28]: 0.059 OD450
